Among the data in patent US20070111944A1 (published 2007) are luciferase reporter activity (ED50), binding result and IC50 values, retold here.

The target of test [1] is chimeric receptor consisting of the extracellular and transmembrane domain of VEGFR1 fused to the cytoplasmic domain of gp130 (UniProt P17948). Nature of the test: cell-based or functional assay.
The target of a further test is T1, VEGF-R2/Fc (human, UniProt P35968 20-764).
T1 construct: Bought from R&D Systems; also called VEGF receptor 2; not shown: human immunoglobulin Fc domain
The test can be described thus: SPR (Biacore 2000), VEGF-B167 immobilised, receptor-Fc injected. The procedure:
For control purposes binding of the receptors to VEGF-A₁₆₅ was also monitored. Both VEGF-B₁₆₇ and VEGF-A₁₆₅ were individually immobilised to a sensorchip using NHS/EDC chemistry according to the manufacturer's instructions. Briefly, 35 μl of NHS and EDC was injected onto the sensorchip at a flow rate of 5 μl/min to activate the sensor surface and enable covalent coupling of either VEGF-A₁₆₅ or VEGF-B₁₆₇. […] Post coupling, diaminoethane (50 mM, pH 9.0) was used to block any unbound activated sites on the sensor surface. Concentrated dimeric VEGF-B₁₆₇ (200 μg/ml) was diluted (1:10) in 20 mM sodium acetate and immobilized onto a separate channel on the sensorchip. Post coupling, diaminoethane (50 mM, pH 9.0) was used to block any unbound activated sites on the sensor surface.
At the end of each run, the surface of the sensorchip was regenerated using 2 cycles of phosphoric acid (0.1 M, 30 μl) at a flow of 50 μl/min. […] Both were diluted into 0.1% w/v BSA in PBS as a stock solution (50 μg/ml, storage −20° C.).
A general note: SPR reads the build-up and loss of mass on a sensor chip optically.

For another test, the target named is T2, VEGF-R1/Fc (human, UniProt P17948-2 27-758, limits assumed).
T2 construct: Bought from R&D Systems; also called VEGF receptor 1; Flt-1; not shown: human immunoglobulin Fc domain
Nature of the test: competition ELISA on captured VEGF-R1/Fc; competitor VEGF-A165 at 10 ng/ml, detected with biotinylated anti-VEGF-A165; VEGF-A165 at 10 ng/ml; VEGF-R1/Fc captured on plate. Here is the method:
1. […] 2. […] 6. […] 7. Biotinylated anti-VEGF-A₁₆₅ (10 ng/ml in Buffer 20, 100 μl) was added and incubated for 1 hr. […] 8. […] 9. […] 10. […] 11.
A general note: An ELISA detects its analyte on a solid surface through an enzyme-linked reagent.

Chain of chimeric receptor consisting of the extracellular and transmembrane domain of VEGFR1 fused to the cytoplasmic domain of gp130 (P17948 other isoform, or with tags, fused parts or gaps mutant limits assumed): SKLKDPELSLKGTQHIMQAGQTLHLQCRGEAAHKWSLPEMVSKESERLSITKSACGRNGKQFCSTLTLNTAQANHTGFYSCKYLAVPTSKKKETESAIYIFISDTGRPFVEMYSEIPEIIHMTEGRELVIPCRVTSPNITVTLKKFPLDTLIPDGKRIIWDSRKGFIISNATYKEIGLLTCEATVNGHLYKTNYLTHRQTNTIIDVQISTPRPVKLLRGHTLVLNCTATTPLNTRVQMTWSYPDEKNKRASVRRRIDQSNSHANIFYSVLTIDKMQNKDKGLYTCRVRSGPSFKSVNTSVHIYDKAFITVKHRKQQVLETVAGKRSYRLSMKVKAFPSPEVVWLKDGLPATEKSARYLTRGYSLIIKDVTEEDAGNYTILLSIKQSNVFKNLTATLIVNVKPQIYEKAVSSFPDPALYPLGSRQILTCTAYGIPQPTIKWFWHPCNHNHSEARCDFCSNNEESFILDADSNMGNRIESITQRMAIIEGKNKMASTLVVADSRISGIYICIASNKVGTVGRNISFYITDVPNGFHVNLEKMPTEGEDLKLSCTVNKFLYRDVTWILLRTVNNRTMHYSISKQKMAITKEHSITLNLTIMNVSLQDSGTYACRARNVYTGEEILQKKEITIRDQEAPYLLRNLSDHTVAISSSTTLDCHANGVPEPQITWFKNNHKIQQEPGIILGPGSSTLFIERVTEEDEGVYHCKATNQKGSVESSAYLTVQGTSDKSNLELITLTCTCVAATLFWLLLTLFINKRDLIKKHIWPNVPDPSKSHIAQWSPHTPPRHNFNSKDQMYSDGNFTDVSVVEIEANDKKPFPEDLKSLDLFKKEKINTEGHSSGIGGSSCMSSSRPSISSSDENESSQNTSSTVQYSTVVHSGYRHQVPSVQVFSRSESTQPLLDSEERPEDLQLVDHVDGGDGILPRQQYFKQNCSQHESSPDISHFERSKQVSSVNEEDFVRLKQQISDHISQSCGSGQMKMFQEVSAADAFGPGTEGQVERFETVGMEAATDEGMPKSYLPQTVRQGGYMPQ
T2 sequence (P17948 27-758 limits assumed, form in doubt): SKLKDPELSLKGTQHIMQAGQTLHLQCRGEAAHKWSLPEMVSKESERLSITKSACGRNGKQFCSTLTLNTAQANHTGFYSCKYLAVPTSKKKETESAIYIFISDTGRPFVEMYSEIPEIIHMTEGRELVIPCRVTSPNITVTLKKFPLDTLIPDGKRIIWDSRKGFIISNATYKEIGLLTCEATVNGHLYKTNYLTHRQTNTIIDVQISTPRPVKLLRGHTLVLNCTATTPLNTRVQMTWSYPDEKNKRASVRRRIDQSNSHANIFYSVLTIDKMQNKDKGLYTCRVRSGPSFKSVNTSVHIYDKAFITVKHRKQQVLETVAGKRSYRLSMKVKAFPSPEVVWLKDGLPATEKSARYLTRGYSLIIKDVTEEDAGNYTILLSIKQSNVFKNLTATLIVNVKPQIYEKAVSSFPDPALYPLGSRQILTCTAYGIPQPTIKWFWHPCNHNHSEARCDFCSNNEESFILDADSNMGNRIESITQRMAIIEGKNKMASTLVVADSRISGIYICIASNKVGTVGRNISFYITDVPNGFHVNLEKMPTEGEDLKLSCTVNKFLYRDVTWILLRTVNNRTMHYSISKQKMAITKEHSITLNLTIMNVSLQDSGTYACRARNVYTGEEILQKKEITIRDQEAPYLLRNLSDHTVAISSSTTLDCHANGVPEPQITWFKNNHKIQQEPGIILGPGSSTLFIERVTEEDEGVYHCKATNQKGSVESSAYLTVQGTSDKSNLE
T1 sequence (P35968 20-764 limits assumed): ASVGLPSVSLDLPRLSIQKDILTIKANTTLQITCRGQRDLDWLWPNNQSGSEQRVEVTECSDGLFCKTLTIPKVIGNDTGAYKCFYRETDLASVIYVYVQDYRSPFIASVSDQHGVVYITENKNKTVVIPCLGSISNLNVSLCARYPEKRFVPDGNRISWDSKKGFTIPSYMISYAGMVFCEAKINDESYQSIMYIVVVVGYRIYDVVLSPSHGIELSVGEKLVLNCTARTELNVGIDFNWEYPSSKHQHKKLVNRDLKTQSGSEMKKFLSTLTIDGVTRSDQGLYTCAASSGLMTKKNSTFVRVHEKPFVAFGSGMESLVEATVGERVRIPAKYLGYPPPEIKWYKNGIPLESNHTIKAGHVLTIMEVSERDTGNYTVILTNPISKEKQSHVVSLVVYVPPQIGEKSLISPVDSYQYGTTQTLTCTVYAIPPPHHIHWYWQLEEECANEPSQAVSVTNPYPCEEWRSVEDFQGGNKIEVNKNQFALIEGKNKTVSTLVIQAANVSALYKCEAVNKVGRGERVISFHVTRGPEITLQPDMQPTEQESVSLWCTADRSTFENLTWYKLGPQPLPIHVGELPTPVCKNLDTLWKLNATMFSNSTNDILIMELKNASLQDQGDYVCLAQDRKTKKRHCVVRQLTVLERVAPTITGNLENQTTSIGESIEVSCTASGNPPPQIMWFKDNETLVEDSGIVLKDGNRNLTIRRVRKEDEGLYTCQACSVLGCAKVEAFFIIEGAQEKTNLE

For the molecule “VEGF-A (from UniProt P15692 27-191) (ligand)”, the luciferase reporter activity (ED50) in test [1] was 0.01 to 0.05 µg/mL.

B1: refolded dimeric VEGF-B167 (ligand)
chain: APVSQPDAPGHQRKVVSWIDVYTRATCQPREVVVPLTVELMGTVAKQLVPSCVTVQRCGGCCPDDGLECVPTGQHQVRMQILMIRYPSSQLGEMSLEEHSQCECRPKKKDSAVKPDSPRPLCPRCTQHHQRPDPRTCRCRCRRRSFLRCQGRGLELNPDTCRCRKLRR
notes: also called purified dimeric VEGF-B167
A word on the IC50: it is the concentration that inhibits the measured activity by half. With B1, in the test with VEGF-R2/Fc, the binding result was “no binding (tested: 50 µg/ml stock diluted 1:10)”. The molecule also showed an IC50 in the test with VEGF-R1/Fc of about 0.02 µg/mL.
